Values belong to the molecule of their own block, whether it stands above or below them. No end group written: not given here. *: point of attachment. FITC = O=C1OC2(c3ccc(O)cc3Oc3cc(O)ccc32)c2ccc(NC(=S)*)cc21; Ahx = NCCCCCC(=O)O
Tests used:
[1] = Aggregation observed in the fluorescence polarization competition assay; assay type: physicochemical; conditions: FP competition assay, binding buffer; result in words
Experimental: Competition assays were analyzed by fluorescence polarization on a DTX880 Multimode plate reader (Beckman Coulter) using an excitation of 485 nm and an emission filter at 535 nm at 30°C. Anisotropy values (N = 4) were statistically evaluated using Grubbs' test for outliers at a significance level of 0.05 and converted to fraction of FITC-PL peptide bound (fb) using Eq. (3) and represented as mean ± standard error of mean (Y).

recombinant PCNA protein [2] = molecular target: T1, recombinant PCNA protein (Homo sapiens, UniProt P12004); assay: Fluorescence polarization competition assay (displacement of FITC-PL peptide from PCNA); assay type: binding; design: (His)6 (N); TEV protease recognition site (N); made in house; host or cells: E. coli BL21(DE3)
Experimental: (3) and represented as mean ± standard error of mean (Y). Fraction of the FITC-PL peptide bound (Y) was plotted as a function of the logarithm of the 12 amino acid peptide antagonist concentration (X), and IC50 values were determined by fitting the data to Eq. […] Anisotropy values were also analyzed using complete and incomplete binding models without non-specific effects as outlined in Roehrl et al..

recombinant PCNA protein [3] = molecular target: T1, recombinant PCNA protein; assay: ITC; conditions: cited from earlier work
[4] = molecular target: T2, recombinant PCNA protein (N-terminal (His)6-PCNA) (human, UniProt P12004 1-261); assay: fluorescence polarisation; competition: increasing unlabeled peptide with 50 nM FITC-PL peptide and 1 µM PCNA (monomer concentration); 25 mM HEPES pH 7.4, 10% glycerol, 0.01% Triton X-100; 30 min at room temperature, read at 30°C; Ki from a modified Cheng-Prusoff equation; conditions: both partners purified
T2 construct: PCNA, human; amplified by PCR from a template plasmid (Genecoepia) into pEV-L8, which has an N-terminal (His)6-tag and a TEV protease recognition site; No TEV cleavage is described; also called human PCNA; source: E. coli BL21(DE3), purified (Ni-NTA)

[5] = molecular target: T2, recombinant PCNA protein (N-terminal …); assay: as above; conditions: both partners purified; remark: listed apart in the source
[6] = molecular target: T2, recombinant PCNA protein (N-terminal …); assay: fluorescence polarisation; direct binding: increasing recombinant PCNA (monomer concentration) added to 50 nM FITC-PL peptide; 25 mM HEPES pH 7.4, 10% glycerol, 0.01% Triton X-100; 30 min at room temperature, read at 30°C; fit with a Hill slope; conditions: both partners purified
recombinant PCNA protein [7] = molecular target: T3, recombinant PCNA protein (human, UniProt P12004 1-261); assay: fluorescence polarisation; competition: increasing unlabeled 12-mer peptide against 50 nM N-terminal FITC-PL peptide and 1 µM PCNA (monomer concentration); 25 mM HEPES pH 7.4, 10% glycerol, 0.01% Triton X-100; 30 min at room temperature, read at 30°C; fraction of FITC-PL bound fitted to the complete (Eq. 6) or incomplete (Eq. 7, four-state) competition model of Roehrl et al.; estimated dissociation constants; conditions: both partners purified
T3 construct: PCNA (proliferating cell nuclear antigen), human; The vector has a TEV protease site after the (His)6 tag, and no cleavage is described; also called (His)6-PCNA; source: E. coli BL21(DE3), purified (Ni-NTA, dialysis)
T3 sequence (P12004 whole entry): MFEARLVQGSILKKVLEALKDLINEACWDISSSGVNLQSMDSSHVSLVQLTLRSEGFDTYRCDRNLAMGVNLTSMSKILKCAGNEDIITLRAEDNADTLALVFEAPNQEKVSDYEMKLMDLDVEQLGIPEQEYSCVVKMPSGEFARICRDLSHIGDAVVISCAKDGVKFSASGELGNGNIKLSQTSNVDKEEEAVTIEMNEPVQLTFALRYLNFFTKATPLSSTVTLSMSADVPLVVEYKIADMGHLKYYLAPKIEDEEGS

T2 sequence (P12004 whole entry): as above
T1 sequence (P12004 whole entry): as above

- aggregation of the tracer at higher concentrations [1]: not observed
- binding to recombinant PCNA in the competition assay (recombinant PCNA protein [2]; result in words): did not bind
Molecule: GVQRNHETAFQG [Mcl-1]

Molecule: p21 12-mer PIP box peptide PIP box (from UniProt P38936)
- Kd (recombinant PCNA protein [3]): 640 nM

- Hill Slope (recombinant PCNA protein [2]; Hill slope n of the fit to Eq. (4), 50 nM FITC-PL, 1 µM PCNA (monomer)): −1.2±0.2
Molecule: NRQVSITGFFQR [DNA polymerase δ (p66 subunit), 12-amino acid PIP Box peptide modeled after the p66 subunit of DNA polymerase δ]

- Kd (recombinant PCNA protein [2]; estimated dissociation constant of competitive ligand-PCNA interaction, Roehrl et al. binding models, Eq. (6)/(7), read-out: Kd2): 615 ± 251 nM
- Kd (recombinant PCNA protein [2]; incomplete competition model (four state), Roehrl et al., Eq. (7), read-out: Kd3): 3100 ± 200 nM
Molecule: RRQTSMTDFYHS-NH2 [p21]

- IC50 [4]: 145 ± 13 nM
- Ki [4]: 136 nM
- fb at [peptide]max (fraction of FITC-PL bound) [4]: 0
- IC50 [5]: 144 ± 13 nM
B1: unlabeled POGO-ligase (PL) peptide (peptide)
peptide: SAVLQKKITDYFHPKK
notes: Synthesised on CLEAR Amide resin, so the C-terminus is probably an amide (surmised); also called control PL peptide; source: synthetic peptide (solid phase, HPLC purified)

- Kd [6]: 760 ± 19 nM
B2: N-terminal fluorescein isothiocyanate (FITC) labeled PL peptide (peptide)
peptide: {FITC-Ahx}-SAVLQKKITDYFHPKK
notes: Synthesised on CLEAR Amide resin, so the C-terminus is probably an amide (surmised); also called FITC-PL peptide; FITC-PL; source: synthetic peptide (solid phase, HPLC purified)

- IC50 [4]: 67900 ± 15800 nM
- Ki [4]: 28900 nM
- fb at [peptide]max (fraction of FITC-PL bound) [4]: 0
B3: DNA polymerase δ (p66 subunit) 12-mer PIP Box peptide mimic (peptide)
peptide: NRQVSITGFFQR
notes: 12-mer modeled after the PIP Box of the p66 subunit of DNA polymerase δ; Synthesised on CLEAR Amide resin, so the C-terminus is probably an amide (surmised); also called p66 peptide; source: synthetic peptide (solid phase, HPLC purified)

- Kd (recombinant PCNA protein [7]): 52900 ± 14700 nM
B4: Abl 12-mer PIP Box peptide (peptide)
peptide: PGQRSISLRYEG
notes: PIP Box stretch of Abl (ABL1), lying in the SH2 domain; Made on CLEAR Amide resin, so the C-terminus is probably an amide; source: synthetic peptide (solid phase, HPLC purified)

- Kd (recombinant PCNA protein [7]): 2000 ± 400 nM
B5: Akt 12-mer reverse PIP Box peptide (peptide)
peptide: HRFFAGIVWQHV
notes: reverse PIP Box stretch of Akt, found by screening the human genome; Made on CLEAR Amide resin, so the C-terminus is probably an amide; source: synthetic peptide (solid phase, HPLC purified)

- IC50 [4]: 7500 ± 300 nM
- Ki [4]: 2900 nM
- fb at [peptide]max (fraction of FITC-PL bound) [4]: 0
B6: PI3K (p85α subunit) 12-mer PIP Box peptide mimic (peptide)
peptide: TLQYLLKHFFKL
notes: 12-mer modeled after the PIP Box of PI3-kinase p85α, found by a screen of the human genome; Synthesised on CLEAR Amide resin, so the C-terminus is probably an amide (surmised); also called p85α peptide; PI3-kinase (p85α regulatory domain); source: synthetic peptide (solid phase, HPLC purified)

- Kd (recombinant PCNA protein [7]): 1600 ± 600 nM
B7: PI3K (p85α subunit) 12-mer PIP Box peptide (peptide)
peptide: TLQYLLKHFFKL
notes: PIP Box stretch of the PI3-kinase p85α regulatory subunit (PIK3R1), found by screening the human genome; Made on CLEAR Amide resin, so the C-terminus is probably an amide; also called PI3-kinase (p85α regulatory domain); source: synthetic peptide (solid phase, HPLC purified)

- Kd (recombinant PCNA protein [7]): 20800 ± 4400 nM
B8: DNA polymerase δ (p66 subunit) 12-mer PIP Box peptide (peptide)
peptide: NRQVSITGFFQR
notes: PIP Box stretch of the p66 subunit of DNA polymerase δ (POLD3); Made on CLEAR Amide resin, so the C-terminus is probably an amide; source: synthetic peptide (solid phase, HPLC purified)

- IC50 [4]: 1800 ± 500 nM
- Ki [4]: 477 nM
- fb at [peptide]max (fraction of FITC-PL bound) [4]: 0.25
B9: p21 12-mer PIP Box peptide mimic (peptide)
peptide: RRQTSMTDFYHS
notes: 12-mer modeled after the C-terminal PIP Box of the tumor suppressor p21; Synthesised on CLEAR Amide resin, so the C-terminus is probably an amide (surmised); also called p21 peptide; p21 12-amino acid peptide; source: synthetic peptide (solid phase, HPLC purified)

- IC50 [4]: 71300 ± 12100 nM
- Ki [4]: 30400 nM
- fb at [peptide]max (fraction of FITC-PL bound) [4]: 0.1
B10: Abl 12-mer PIP Box peptide mimic (peptide)
peptide: PGQRSISLRYEG
notes: Synthesised on CLEAR Amide resin, so the C-terminus is probably an amide (surmised); also called Abl peptide; source: synthetic peptide (solid phase, HPLC purified)

- IC50 [4]: 8500 ± 4200 nM
- Ki [4]: 3400 nM
- fb at [peptide]max (fraction of FITC-PL bound) [4]: 0.06
B11: Akt 12-mer reverse PIP Box peptide mimic (peptide)
peptide: HRFFAGIVWQHV
notes: 12-mer modeled after the reverse PIP Box of Akt, found by a screen of the human genome; Synthesised on CLEAR Amide resin, so the C-terminus is probably an amide (surmised); also called Akt peptide; reverse-PIP Box Akt peptide; source: synthetic peptide (solid phase, HPLC purified)
